Experimental data reported in patent publication US20250188146A1.

Assays:
CD19 = CD19 (UniProt P15391); test: cell-based or functional assay
[1] = biological target: CLDN18.2 on KATO III-18.2+ cells (UniProt P56856); test: cell-based or functional assay

Chain of CD19 (P15391 20-556 limits assumed): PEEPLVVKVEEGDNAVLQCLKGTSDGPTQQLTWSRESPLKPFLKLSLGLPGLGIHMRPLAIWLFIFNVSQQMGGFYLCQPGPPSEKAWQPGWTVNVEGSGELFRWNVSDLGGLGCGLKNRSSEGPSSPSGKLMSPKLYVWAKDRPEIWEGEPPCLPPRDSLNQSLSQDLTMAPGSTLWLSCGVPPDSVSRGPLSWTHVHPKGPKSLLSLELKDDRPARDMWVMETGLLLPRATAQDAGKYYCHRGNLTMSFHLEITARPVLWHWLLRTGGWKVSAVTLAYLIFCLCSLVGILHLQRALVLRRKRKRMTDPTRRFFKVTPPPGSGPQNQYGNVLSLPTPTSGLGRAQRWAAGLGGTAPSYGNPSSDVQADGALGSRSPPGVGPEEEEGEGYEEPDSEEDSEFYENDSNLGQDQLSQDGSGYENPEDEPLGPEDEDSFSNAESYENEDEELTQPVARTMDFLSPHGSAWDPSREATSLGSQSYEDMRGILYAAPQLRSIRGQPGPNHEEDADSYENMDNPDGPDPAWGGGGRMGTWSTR

B1: CD19 CAR with humanized CD19 scFv (binding domain SEQ ID NO: 5) (protein, not shown: a dimerising Fc or GST)
chain: DIQMTQSPSSLSASVGDRVTITCRASQDISKYLNWYQQKPGKAPKLLIYHTSRLHSGVPSRFSGSGSGTDFTLTISSLQPEDFATYYCQQGNTLPYTFGQGTKVEIKGGGGSGGGGSGGGGSEVQLVESGGGLVQPGGSLRLSCAASGVSLPDYGVSWVRQAPGKGLEWVSVIWGSETTYYNSALKSRFTISRDNAKNSLYLQMNSLRAEDTAVYYCAKHYYYGGSYAMDYWGQGTLVTVSS
CD25, hCAR+ cells; K19 co-culture 24 h; PBMC+, IL6+, IL15- (CD19): 48.3% | CD25, hCAR+ cells; K19 co-culture 24 h; PBMC+, IL6-, IL15- (CD19): 53% | CD25, hCAR+ cells; K19 co-culture 24 h; PBMC-, IL6+, IL15- (CD19): 52.3% | CD25, hCAR+ cells; K19 co-culture 24 h; PBMC-, IL6-, IL15+ (CD19): 57.1% | CD25, hCAR+ cells; K19 co-culture 24 h; PBMC-, IL6-, IL15- (CD19): 53.1% | CD25, hCAR+ cells; K19 co-culture 48 h; PBMC+, IL6+, IL15- (CD19): 34.2% | CD25, hCAR+ cells; K19 co-culture 48 h; PBMC+, IL6-, IL15- (CD19): 35.8% | CD25, hCAR+ cells; K19 co-culture 48 h; PBMC-, IL6+, IL15- (CD19): 39.1% | CD25, hCAR+ cells; K19 co-culture 48 h; PBMC-, IL6-, IL15+ (CD19): 43.4% | CD25, hCAR+ cells; K19 co-culture 48 h; PBMC-, IL6-, IL15- (CD19): 41.5% | CD25 MFI, hCAR+ cells; K19 co-culture 24 h; PBMC+, IL6+, IL15- (CD19): 6740 MFI | CD25 MFI, hCAR+ cells; K19 co-culture 24 h; PBMC+, IL6-, IL15- (CD19): 7080 MFI | CD25 MFI, hCAR+ cells; K19 co-culture 24 h; PBMC-, IL6+, IL15- (CD19): 6480 MFI | CD25 MFI, hCAR+ cells; K19 co-culture 24 h; PBMC-, IL6-, IL15+ (CD19): 6060 MFI | CD25 MFI, hCAR+ cells; K19 co-culture 24 h; PBMC-, IL6-, IL15- (CD19): 6200 MFI | CD25 MFI, hCAR+ cells; K19 co-culture 48 h; PBMC+, IL6+, IL15- (CD19): 11200 MFI | CD25 MFI, hCAR+ cells; K19 co-culture 48 h; PBMC+, IL6-, IL15- (CD19): 11800 MFI | CD25 MFI, hCAR+ cells; K19 co-culture 48 h; PBMC-, IL6+, IL15- (CD19): 12300 MFI | CD25 MFI, hCAR+ cells; K19 co-culture 48 h; PBMC-, IL6-, IL15+ (CD19): 11400 MFI | CD25 MFI, hCAR+ cells; K19 co-culture 48 h; PBMC-, IL6-, IL15- (CD19): 11100 MFI | CD137, hCAR+ cells; K19 co-culture 24 h; PBMC+, IL6+, IL15- (CD19): 35.6% | CD137, hCAR+ cells; K19 co-culture 24 h; PBMC+, IL6-, IL15- (CD19): 39.9% | CD137, hCAR+ cells; K19 co-culture 24 h; PBMC-, IL6+, IL15- (CD19): 55.8% | CD137, hCAR+ cells; K19 co-culture 24 h; PBMC-, IL6-, IL15+ (CD19): 62.1% | CD137, hCAR+ cells; K19 co-culture 24 h; PBMC-, IL6-, IL15- (CD19): 57.4% | CD137, hCAR+ cells; K19 co-culture 48 h; PBMC+, IL6+, IL15- (CD19): 28% | CD137, hCAR+ cells; K19 co-culture 48 h; PBMC+, IL6-, IL15- (CD19): 47.1% | CD137, hCAR+ cells; K19 co-culture 48 h; PBMC-, IL6+, IL15- (CD19): 57.6% | CD137, hCAR+ cells; K19 co-culture 48 h; PBMC-, IL6-, IL15+ (CD19): 58.6% | CD137, hCAR+ cells; K19 co-culture 48 h; PBMC-, IL6-, IL15- (CD19): 57.3% | CD137MFI, hCAR+ cells; K19 co-culture 24 h; PBMC+, IL6+, IL15- (CD19): 18100 MFI | CD137MFI, hCAR+ cells; K19 co-culture 24 h; PBMC+, IL6-, IL15- (CD19): 19000 MFI | CD137MFI, hCAR+ cells; K19 co-culture 24 h; PBMC-, IL6+, IL15- (CD19): 23400 MFI | CD137MFI, hCAR+ cells; K19 co-culture 24 h; PBMC-, IL6-, IL15+ (CD19): 25500 MFI | CD137MFI, hCAR+ cells; K19 co-culture 24 h; PBMC-, IL6-, IL15- (CD19): 26800 MFI | CD137MFI, hCAR+ cells; K19 co-culture 48 h; PBMC+, IL6+, IL15- (CD19): 43000 MFI | CD137MFI, hCAR+ cells; K19 co-culture 48 h; PBMC+, IL6-, IL15- (CD19): 24800 MFI | CD137MFI, hCAR+ cells; K19 co-culture 48 h; PBMC-, IL6+, IL15- (CD19): 51500 MFI | CD137MFI, hCAR+ cells; K19 co-culture 48 h; PBMC-, IL6-, IL15+ (CD19): 51900 MFI | CD137MFI, hCAR+ cells; K19 co-culture 48 h; PBMC-, IL6-, IL15- (CD19): 52600 MFI | CD137 expression of CAR T CD8+ cells, co-culture 48 h with Nalm-6 (CD19): 11.1% | IFN-γ release, background subtracted; K19 co-culture 24 h; PBMC+, IL6+, IL15- (CD19): 64300 | IFN-γ release, background subtracted; K19 co-culture 24 h; PBMC+, IL6-, IL15- (CD19): 64800 | IFN-γ release, background subtracted; K19 co-culture 24 h; PBMC-, IL6+, IL15- (CD19): 19200 | IFN-γ release, background subtracted; K19 co-culture 24 h; PBMC-, IL6-, IL15+ (CD19): 21300 | IFN-γ release, background subtracted; K19 co-culture 24 h; PBMC-, IL6-, IL15- (CD19): 16000 | IFN-γ release, background subtracted; K19 co-culture 48 h; PBMC+, IL6+, IL15- (CD19): 152000 | IFN-γ release, background subtracted; K19 co-culture 48 h; PBMC+, IL6-, IL15- (CD19): 160000 | IFN-γ release, background subtracted; K19 co-culture 48 h; PBMC-, IL6+, IL15- (CD19): 120000 | IFN-γ release, background subtracted; K19 co-culture 48 h; PBMC-, IL6-, IL15+ (CD19): 134000 | IFN-γ release, background subtracted; K19 co-culture 48 h; PBMC-, IL6-, IL15- (CD19): 114000

B2: 18.2 CAR (protein, part only; not given: Hinge, transmembrane and signaling domains, part only)
chain, part: DIVMTQSPSSLTVTAGEKVTMSCKSSQSLLNSGNQKNYLTWYQQKPGQPPKLLIYWASTRESGVPDRFTGSGSGTDFTLTISSVQAEDLAVYYCQNDYSYPFTFGSGTKLEIKGGGGSGGGGSGGGGSQVQLQQPGAELVRPGASVKLSCKASGYTFTSYWINWVKQRPGQGLEWIGNIYPSDSYTNYNQKFKDKATLTVDKSSSTAYMQLSSPTSEDSAVYYCTRSWRGNSFDYWGQGTTLTVSS
CD137 expression of CAR T CD8+ cells, co-culture 48 h with KATO III-18.2+ [1]: 8.77%
